Reference: the supplement of paper PMC10567573

B1: SETD8 (parent)
chain: GKQAPRKKAQGKTQQNRKLTDFYP
B2: C2orf65 (parent)
chain: QLDWDELETNQQHFHALCHSLLVS

Variants of: B1
Experiment: protein stability index of a GFP-peptide fusion (GPS, HEK-293T) (PSI 1-6); higher = more stable
Details: c terminus: a fixed tail appended
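Note: lentivirally expressed fusions sorted by FACS into six bins by GFP to DsRed ratio, PSI derived from sequencing read proportions per bin multiplied by bin number.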

Protein stability index: each site, then its substitutions
Q14: I 3.11 | F 1.92 | V 3.07 | G 2.52 | W 3.37
L19: N 4.73
K18: P 2.96 | M 2.06
G11: I 3.73
P5: T 1.74 | E 3.58
D21: M 3.46 | Y 2.97 | H 3.57
Y23: E 4.51 | P 4.44 | G 4.34
R6: I 2.76 | F 2.43
P24: I 3.44 | K 3.09 | Q 3.65 | G 4.31
T13: S 2.04
A4: K 3.73 | T 2.71
K2: A 3.09 | C 2.92
T20: H 3.94 | N 3.61 | K 3.54
G1: D 2.68
R17: F 2.88 | I 3.68 | C 2.96
F22: S 4.69 | A 4.61 | D 3.15
N16: V 3.57 | F 2.68 | K 2.91
K12: R 2.99 | E 3.66
K7: W 2.95
A9: Q 2.89
Q10: S 4.86 | V 3.01 | Y 3.22
K8: I 3.04 | N 2.77
Q3: V 2.28 | D 3.41

Variants of: B2
Experiment: as above
Details: c terminus: a fixed tail appended

Protein stability index: each site, then its substitutions
T9: I 1.69 | W 1.81 | F 1.8 | P 1.91 | D 2.39 | V 3.67 | S 2.37 | R 1.61 | G 2.07 | C 2.21 | A 2.71 | Y 1.84 | N 1.56 | H 2.54 | Q 2.75 | K 1.97 | E 2.88 | L 1.52 | M 2.35
D5: T 2.18 | M 1.95 | C 1.55 | R 1.95 | G 2.07 | F 2.47 | W 1.18 | P 2.34 | K 2 | Y 2.31 | A 2.01 | N 1.49 | Q 1.57 | I 1.58 | L 1.22 | H 2.04 | V 1.66 | S 1.83 | E 2.54
Q1: C 1.65 | T 2.06 | W 1.51 | H 2.22 | E 2.29 | V 2.5 | I 1.5 | A 2.11 | S 2.21 | K 1.75 | N 2.25 | Y 1.68 | M 2.46 | F 1.81 | G 2.55 | L 1.64 | P 2.48 | R 1.96 | D 2.67
H13: G 2.39 | M 1.65 | C 2.31 | A 2.16 | I 1.71 | N 2.35 | P 2.63 | V 1.85 | E 2.89 | Y 2.5 | Q 2.36 | K 2.02 | T 2.51 | S 1.98 | R 1.88 | D 2.37 | W 1.55 | F 2.15 | L 1.99
H15: Q 1.72 | N 2.26 | M 2.33 | P 2.12 | D 2.64 | R 1.71 | K 2.42 | S 1.85 | E 2.78 | V 2.39 | L 1.61 | F 1.36 | G 2.48 | T 2.28 | C 1.66 | I 2.36 | A 1.92
F14: S 2.91 | P 2.87 | E 3.58 | D 3.95 | C 2.46 | Y 2.34 | K 3.26 | T 3.32 | V 2.79 | I 2.48 | L 2.75 | H 2.67 | M 2.72 | W 2.18 | Q 3.42 | R 2.44 | N 3.19 | A 3.53 | G 3.51
W4: I 3.03 | V 3.11 | H 2.69 | T 3.14 | D 3.18 | Q 3.35 | S 3.2 | K 2.85 | M 2.98 | C 3.19 | L 2.4 | N 2.78 | F 2.54 | A 2.93 | Y 2.56 | G 2.99 | R 2.77 | P 2.02
L2: Y 1.64 | P 3.02 | D 2.55 | I 1.78 | C 1.95 | S 2.17 | K 2.4 | N 2.31 | H 2.51 | T 2.02 | G 2.33 | E 2.97 | Q 2.42 | A 2.68 | V 2.31 | W 1.63 | R 2.25 | F 1.98 | M 1.94
E6: V 2.32 | L 2.34 | H 1.57 | Y 1.44 | A 2.04 | P 2.5 | G 2.13 | R 1.96 | I 1.81 | K 1.46 | S 1.66 | D 1.9 | T 1.82 | F 3.45 | N 1.79 | W 2.55 | C 1.95 | Q 1.84 | M 1.83
D3: H 1.92 | A 2.27 | T 2.59 | L 1.45 | M 1.05 | Y 1.47 | S 1.57 | V 1.73 | C 1.85 | P 2.07 | W 3.03 | I 2.23 | F 1.93 | R 1.85 | E 2.27 | G 2.85 | N 2.01 | Q 2.1 | K 1.83
Q12: R 2.37 | I 2.55 | T 2.13 | A 1.84 | G 2.69 | Y 1.48 | P 2.73 | D 2.37 | C 2.06 | E 2.43 | V 2.17 | S 2.62 | N 2.1 | K 1.84 | W 2.6 | L 1.67 | M 1.83 | F 1.45 | H 1.92
N10: Y 1.99 | C 1.76 | D 2.87 | L 1 | P 2.31 | W 2.25 | H 2.17 | K 2 | R 2.81 | E 2.33 | F 1.69 | V 1.62 | M 2.18 | A 2.04 | G 2.82 | I 2.19 | Q 2.07 | S 2.2 | T 1.55
Q11: R 2.29 | L 2.23 | Y 1.39 | A 1.66 | D 2.56 | S 1.79 | T 2.04 | K 1.97 | F 2.13 | C 1.9 | P 2.02 | N 2.34 | E 2.39 | H 2.07 | V 1.45 | W 2.01 | I 1.39 | G 2.62 | M 2.39
E8: G 1.64 | F 1.57 | W 2.9 | I 2.01 | R 1.99 | T 1.61 | A 1.57 | V 1.21 | M 2.73 | C 1.59 | Y 1.87 | K 1.39 | D 2.11 | P 1.87 | H 1.95 | N 2.07 | Q 1.89 | S 1.67 | L 2.31
L7: P 2.84 | E 3.03 | T 2.16 | A 2.33 | Y 2.27 | F 2.13 | C 2.5 | S 2.8 | R 2.16 | D 3.63 | K 2.79 | N 2.84 | I 1.82 | H 2.18 | Q 2.79 | M 1.94 | G 2.6 | W 1.33 | V 2.36
